B1: RuBisCO large subunit RbcL from Anabaena sp. PCC 7120 (His-RbcL) (natural protein, UniProt P00879 1-476, looked up)
chain: MSYAQTKTQTKSGYKAGVQDYRLTYYTPDYTPKDTDILAAFRVTPQPGVPFEEAAAAVAAESSTGTWTTVWTDLLTDLDRYKGRCYDIEPVPGEDNQFIAYIAYPLDLFEEGSITNVLTSIVGNVFGFKALRALRLEDIRFPVAYIKTFQGPPHGIQVERDKLNKYGRPLLGCTIKPKLGLSAKNYGRAVYECLRGGLDFTKDDENINSAPFQRWRDRFLFVADAITKAQAETGEIKGHYLNVTAPTCEEMLKRAEYAKELKQPIIMHDYLTAGFTANTTLARWCRDNGVLLHIHRAMHAVIDRQKNHGIHFRVLAKALRLSGGDHIHTGTVVGKLEGERGITMGFVDLLRENYVEQDKSRGIYFTQDWASLPGVMAVASGGIHVWHMPALVEIFGDDSVLQFGGGTLGHPWGNAPGATANRVALEACVQARNEGRNLAREGNDVIREAAKWSPELAVACELWKEIKFEFEAMDTV
notes: RbcL, ribulose-1,5-bisphosphate carboxylase/oxygenase large subunit, Anabaena sp; coding region amplified from genomic DNA; plasmid pET19-His-RbcL; also called RbcL8 core; source: E. coli BL21 (DE3), co-expressed with GroEL-GroES and chaperones, purified (Ni-NTA, gel filtration); also in lysate (holoenzyme co-purification)
B2: RbcX from Anabaena sp. PCC 7120, co-expressed in the ternary complex (natural protein)
chain: MNLKQIAKDTAKTLQSYLTYQALMTVLAQLGETNPPLALWLHTFSVGKVQDGEAYVKELFREQPDLALRIMTVREHIAEEVAEFLPEMVRSGIQQANMEQRRQHLERMTHLSLSNPSPESEQQTISDTDWDH
notes: RbcX, RuBisCO chaperone, Anabaena sp; coding region amplified from genomic DNA; plasmid pCDFduet-GroEL-GroES-RbcX-Raf1; No tag is named for this RbcX in the plasmid name; also called RbcX2 (dimer); source: E. coli BL21 (DE3), co-expressed with His-RbcL, Raf1 and GroEL-GroES, co-purified (Ni-NTA, gel filtration)
B3: Recombinant Anabaena sp. PCC 7120 Flag-RbcS (RuBisCO small subunit) (natural protein, UniProt P06514 1-109, looked up)
chain: MQTLPKERRYETLSYLPPLTDVQIEKQVQYILSQGYIPAVEFNEVSEPTELYWTLWKLPLFGAKTSREVLAEVQSCRSQYPGHYIRVVGFDNIKQCQILSFIVHKPSRY
notes: RbcS, RuBisCO small subunit, Anabaena sp; coding region amplified from genomic DNA; plasmid pET19-Flag-RbcS; A His-RbcS was also made (pET19-His-RbcS); the assembly-assay methods name Flag-RbcS; source: E. coli BL21 (DE3), purified (anti-FLAG M2 gel, Superdex 75); also in lysate (holoenzyme co-purification)

Tests used:
[1] = target: the molecule itself; assay: cryo-EM structure; RbcL–Raf1–RbcX ternary complex co-expressed in E. coli with GroEL-GroES, purified by Ni-NTA and gel filtration in 50 mM Tris-HCl pH 8.0, 20 mM NaCl, 5 mM MgCl2; ~2 mg/mL; D4 symmetry; 3.3 Å
[2] = target: T1, Anabaena sp. PCC 7120 RbcL-Raf1 complex (RbcL8Raf1_(8)) (Anabaena sp. PCC 7120, UniProt P00879 1-476; Q8YLP6 1-361); assay: native gel or EMSA; RuBisCO assembly assays: 0.5 µM L8F8 or L8F8X16 mixed with Flag-RbcS (0-10-fold to RbcL), with or without pre-incubation with 8 µM RbcX or RbcX^E32A&R69A or RbcX2 at 0-1 fold to RbcL; 25 °C, 20 mM Tris-HCl pH 8.0, 300 mM NaCl, 5 mM MgCl2, 5% glycerol; ~0.5 h; 6% native-PAGE, bands analysed by SDS-PAGE; conditions: both partners purified
T1 construct: RbcL, Anabaena sp; as m1; plasmid pET19-His-RbcL–Raf1; Raf1, Anabaena sp; as m2; The preparation holds L8F8 and a fraction of L2F2 on native-PAGE; also called L8F8; L2F2 (smaller form in the same preparation); copies: 8 + 8
T1 sequence (Q8YLP6 whole entry, one chain of several): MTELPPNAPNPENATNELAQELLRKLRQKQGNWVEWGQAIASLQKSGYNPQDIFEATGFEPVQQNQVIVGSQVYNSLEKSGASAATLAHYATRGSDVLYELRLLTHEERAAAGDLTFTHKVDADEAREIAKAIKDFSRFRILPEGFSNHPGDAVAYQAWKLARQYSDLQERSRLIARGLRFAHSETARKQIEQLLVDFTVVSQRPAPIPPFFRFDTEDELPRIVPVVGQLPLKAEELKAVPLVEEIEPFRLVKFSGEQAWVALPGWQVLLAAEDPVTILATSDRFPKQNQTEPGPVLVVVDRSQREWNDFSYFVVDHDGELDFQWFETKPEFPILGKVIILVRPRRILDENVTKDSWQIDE

| Binder | stoichiometry N [1] | binding result [2] |
| --- | --- | --- |
| B1 | 8 |  |
| B2 | 2 |  |
| B3 |  | binds |

— article PMC9485235, “Structural insights into cyanobacterial RuBisCO assembly coordinated by two chaperones Raf1 and RbcX” (Cell Discovery, 2022)
